Substitutions are numbered along the chain they refer to.
Key:
[1] = biological target: T1, SNP variant L61V of human IL-10Rα extracellular domain fused to the Fc portion of human IgG1 (human); experiment: ELISA with SNP variant Fc fusion
T1 construct: The entry already holds the change and includes the signal peptide; also called L61I; L611

[2] = biological target: T2, SNP variant V113I of human IL-10Rα extracellular domain fused to the Fc portion of human IgG1 (human); experiment: ELISA with SNP variant Fc fusion
T2 construct: The entry already holds the change and includes the signal peptide; also called V1131
Target sequence in this assay (chain, as listed by the source V113I V113I limits assumed): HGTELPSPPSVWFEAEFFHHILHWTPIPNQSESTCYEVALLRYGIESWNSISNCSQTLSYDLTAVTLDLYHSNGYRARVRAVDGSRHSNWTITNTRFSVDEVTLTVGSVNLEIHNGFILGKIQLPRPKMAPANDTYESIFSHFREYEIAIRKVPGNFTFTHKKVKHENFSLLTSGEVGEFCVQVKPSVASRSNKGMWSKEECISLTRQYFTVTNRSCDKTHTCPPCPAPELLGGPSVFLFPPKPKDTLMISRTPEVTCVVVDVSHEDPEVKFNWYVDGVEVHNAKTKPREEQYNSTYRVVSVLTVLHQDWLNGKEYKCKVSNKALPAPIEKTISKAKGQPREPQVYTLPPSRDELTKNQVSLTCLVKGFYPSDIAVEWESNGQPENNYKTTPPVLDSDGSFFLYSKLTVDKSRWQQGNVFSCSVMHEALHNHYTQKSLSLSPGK

[3] = biological target: T3, SNP variant S159G of human IL-10Rα extracellular domain fused to the Fc portion of human IgG1 (human); experiment: ELISA with SNP variant Fc fusion
T3 construct: The entry already holds the change and includes the signal peptide
Target sequence in this assay (chain, as listed by the source S159G S159G limits assumed): as the sequence (chain, as listed by the source V113I V113I limits assumed) above, with I92V, S138G counted along it

[4] = biological target: T4, SNP variant R212E of human IL-10Rα extracellular domain fused to the Fc portion of human IgG1 (human); experiment: ELISA with SNP variant Fc fusion
T4 construct: The entry already holds the change and includes the signal peptide

[5] = biological target: T5, SNP variant V233M of human IL-10Rα extracellular domain fused to the Fc portion of human IgG1 (human); experiment: ELISA with SNP variant Fc fusion
T5 construct: The entry already holds the change and includes the signal peptide
Target sequence in this assay (chain, as listed by the source V233M V233M limits assumed): as the sequence (chain, as listed by the source V113I V113I limits assumed) above, with I92V, V212M counted along it

[6] = biological target: T6, Biotin-SGSTLDLYHSNGYRARVRAVDG-NH2 (human, N-terminal biotin, C-terminal amide (-NH2)); experiment: ELISA, biotinylated peptide on Extravidin or Neutravidin plates
T6 peptide: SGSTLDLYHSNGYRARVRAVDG
Experimental: (§1) Multiple ELISA methods were also employed to detect binding of anti-IL-10Rα antibodies to IL-10Rα, derived peptides. The biotinylated IL-10Rα derived peptides (SEQ ID NO. 86-87) were diluted to 1 μg/ml in TBS/BSA/0.05% Tween 20 and added to Extravidin or Neutravidin pre-coated ELISA plates (Pierce) for 2 hours at room temperature. After washing three times with TBS/BSA/0.05% Tween 20. The purified anti-human IL-10Rα antibodies were diluted in TBS/BSA/0.05% Tween 20 and added to the wells. The plates were incubated for 1 hour at room temperature. The plates were washed 3 times with TBS/0.05% Tween 20 and peroxidase-conjugated goat anti-human IgG (Fcγ specific), anti-rat IgG, or anti-mouse IgG detection antibodies (Jackson Immunoresearch) were added. Following 1 hour incubation at room temperature, the plates were washed and the TMB (Sigma) substrate was added and incubated at room temperature for 5 to 10 minutes. The reaction was stopped with H₂SO₄ (LabChem) and the optical density was measured at 450 nm using a microplate reader. An OD reading above background wells with no primary antibody is indicative of antibody binding to the peptides. […] The antibodies only bound the positive control biotinylated recombinant human IL-10Rα:hFc protein. […] Antibody binding was detected with species-specific anti-IgG-HRP secondary antibodies. […]

[7] = biological target: T7, Biotin-SGSTYSIFSHFREYEIAIRKV-NH2 (human, N-terminal biotin, C-terminal amide (-NH2)); experiment: as above
T7 peptide: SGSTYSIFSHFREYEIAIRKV
Experimental: as §1

[8] = biological target: T6, Biotin-SGSTLDLYHSNGYRARVRAVDG-NH2; experiment: dot blot on PVDF or nitrocellulose membrane
Experimental: (§2) Methods to detect antibody binding to peptides derived from the human IL-10Rα sequence: Multiple methods were employed to detect binding of anti-human IL-10Rα antibodies to peptides derived from the extracellular domain of human IL-10Rα that have been reported by Reineke, et al. (Reineke, et al., Protein Sci 7:951 (1998)) to be included in the IL-10 binding site of the receptor. The following amide synthesized peptides were tested: Ac-[…]-NH2, Ac-[…]-NH2, Ac-[…]-NH2, Ac-[…]-NH2, Ac-[…]-NH2 (SEQ ID NO. 81-85). In addition, the following biotinylated peptides were tested: Biotin-[…]-NH2, Biotin-[…]-NH2 (SEQ ID NO. 86-87). The amide peptides were synthesized by A&A Labs, LLC (San Diego, Calif.) and the biotinylated peptides were synthesized by GenScript (Piscataway, N.J.) both at >95% purity and reconstituted at 20 mg/ml in DMSO. In one assay design peptides were spotted at 5 μg/spot in PBS onto PVDF membranes or nitrocellulose membranes that had been prepared according to the manufacturer's instructions. The membranes were incubated with anti-IL-10Rα antibodies using standard Western blotting methods (e.g. Towbin, et al., Proc Natl Acad Sci 76:4350 (1979)). Native human IL-10Ra:hFc and heat denatured human IL-10Ra:hFc were also spotted at 1 μg/spot on the membranes as controls. Negative controls included an irrelevant peptide and isotype controls. […] None of the antibodies bound to the spotted denatured protein or to any of the peptides derived from the human IL-10Ra extracellular domain or the irrelevant peptide.

[9] = biological target: T7, Biotin-SGSTYSIFSHFREYEIAIRKV-NH2; experiment: dot blot on PVDF or nitrocellulose membrane
Experimental: as §2

[10] = biological target: T3, SNP variant S159G of human IL-10Rα …; experiment: ELISA, coated SNP variant Fc fusion S159G [D]
[11] = biological target: T2, SNP variant V113I of human IL-10Rα …; experiment: ELISA, coated SNP variant Fc fusion V113I [C]
[12] = biological target: T5, SNP variant V233M of human IL-10Rα …; experiment: ELISA, coated SNP variant Fc fusion V233M [F]

Measured: binding result

T4 sequence (chain, as listed by the source R212E R212E limits assumed): as the sequence (chain, as listed by the source V113I V113I limits assumed) above, with I92V, R191E counted along it
T1 sequence (chain, as listed by the source L61V L61V limits assumed): as the sequence (chain, as listed by the source V113I V113I limits assumed) above, with L40V, I92V counted along it

B1: 136C5 (antibody, V domains shown)
VH: EVQLVESGGGLVQPGGSLRLSCAASGFTFSSYSMNWVRQAPGKGLEWVSYISTGSSTIYYADSVKGRFTISRDNAKNSLYLQMNSLRDEDTAVYYCARENYYGSGSYEDYFDYWGQGTLVTVSS
VL: EIVLTQSPATLSLSPGERATLSCRASQSVSSYLAWYQQKPGQAPRLLIYDASNRATGIPARFSGSGSGTDFTLTISSLEPEDFAVYYCQQRSNWPIFTFGPGTKVDIK
notes: Hybridoma antibody, human IgG1, kappa light chain; also called human anti-human IL-10Rα monoclonal antibody 136C5; hybridoma deposit PTA-9131
binds: [1] | [2] | [3] | [4] | [5]
no binding (tested: 1 µg/ml peptide): [6] | [7]

B2: 136C8 (antibody, V domains shown)
VH: B1 VH with G54R
VL: B1 VL
notes: Hybridoma antibody, human IgG2, kappa light chain; also called human anti-human IL-10Rα monoclonal antibody 136C8; hybridoma deposit PTA-9132
no binding (tested: 5 µg/spot): [8] | [9]
binds: [10] | [11] | [12]

From US20110144312A1 (Kyowa Kirin, published 2011)
